Assay results reported in US20210355235A1, “Compositions and Methods For Treating Cancer with Anti-Renalase antibodies and Anti-PD1 antibodies” (YALE UNIVERSITY, priority 2017, published 2021).

What was measured:
Type in all cases: cell-based, human
Panc1 cells = assay: western blot of p38 and STAT3 phosphorylation
Text: FIG. 27, comprising FIGS. 27A through 27E, is a series of images and charts showing the interaction between RNLS and STAT3, and the mechanistic model of inhibition by m28-RNLS. FIG. 27A is an image showing activation of STAT3 by RNLS in Panc1 cells; Panc1 cells in culture treated with either BSA or RNLS, and STAT3 phosphorylation assessed by western blot; p-Ser^727-STAT3: phosphorylation at serine 727, p-Y^705-STAT3: phosphorylation at tyrosine 705; representative study. FIG. 27B is a chart depicting the quantification of STAT3 phosphorylation with RNLS; signals normalized to total STAT3; n=3, *=P<0.05. […] FIG. 27D is a chart showing the quantification of STAT3 phosphorylation with m28-RNLS; signals normalized to GAPDH loading control; n=3, *=P<0.05. FIG. 27E depicts the proposed mechanistic model for antitumor activity of m28-RNLS.

HK-2 cells = assay: STAT phosphorylation in HK-2 cells treated with RNLS
Text: STAT3 binds to the promoter region of the RNLS gene and increases its expression (Sonawane et al., 2014 Biochemistry. 53(44):6878-6892).

[1] = tested on: A375.S2, MeWo, SkMel5 and SkMel28 cells; assay: survival of serum-starved melanoma cells, WST-1; conditions: 30 ug/ml, 72 hrs
Method: Total cell number and percentage of live cells were assessed by trypan blue exclusion, and cells were counted using a BioRad TC10 automated cell counter. For additional studies, cell viability was determined using WST-1 reagent (Roche Diagnostics, Indianapolis, Ind., USA) according to the manufacturers' instruction. Absorbances were read using a microplate reader (Power Waves XS, BioTek Instruments, Winooski, Vt., USA).
RNLS-mediated signaling is anti-apoptotic, and protects normal cells exposed to toxic stress from apoptotic death (Wang et al., 2014 J Am Soc Nephrol.; Lee et al., 2013 J Am Soc Nephrol. 24:445-55). To explore if RNLS signaling favored the survival of cancer cells, either recombinant RNLS (rRNLS) or bovine serum albumin (BSA) was added to serum-starved melanoma cells (A375.S2, MeWo, SkMel5, and SkMel28) in culture, and cell viability was determined. […] The total cell number and percentage of live cells of those treated with RNLS were counted to determine if the apparent increase in proliferative rate was due an increase in cell proliferation or to a decrease in the rate of apoptosis.

MiaPaCa2 cells = assay: FACS cell cycle analysis with rRNLS; conditions: 30 μg/ml
Method: For cell cycle analysis, cultured cells were dissociated using 10 mM EDTA, fixed with ice-cold 70% ethanol, digested with RNAse A, and stained with propidium iodide. Propidium staining was detected using a BD FACSCalibur flow cytometer (BD Biosciences, San Jose, Calif., USA), and analyzed using CellQuest software.

B1: rRNLS: recombinant human RNLS (renalase) (protein, UniProt Q5VYX0 18-342, looked up)
Renalase: ALLRRQTSGPLYLAVWDKAEDSGGRMTTACSPHNPQCTADLGAQYITCTPHYAKKHQRFYDELLAYGVLRPLSSPIEGMVMKEGDCNFVAPQGISSIIKHYLKESGAEVYFRHRVTQINLRDDKWEVSKQTGSPEQFDLIVLTMPVPEILQLQGDITTLISECQRQQLEAVSYSSRYALGLFYEAGTKIDVPWAGQYITSNPCIRFVSIDNKKRNIESSEIGPSLVIHTTVPFGVTYLEHSIEDVQELVFQQLENILPGLPQPIATKCQKWRHSQVTNAAANCPGQMTLHHKPFLACGGDGFTQSNFDGCITSALCVLEALKNYI
Panc1 cells
  phosphorylated STAT3 (p-Ser727-STAT3 and p-Y705-STAT3) after RNLS: rapid increase
HK-2 cells
  STAT1: unaffected
  increase of STAT3 phosphorylation at serine 727 (p-Ser727-STAT3): 2 fold
  increase of STAT3 phosphorylation at tyrosine 705 (p-Y705-STAT3): 4 fold
[1]
  survival of serum-starved melanoma cells compared to BSA: markedly increased the survival
MiaPaCa2 cells
  cell cycle progression compared to BSA: no effect on cell cycle progression
